# What was measured:
# CD31 (PECAM-1) [1] = target: CD31 (PECAM-1) (UniProt P16284); assay: flow; conditions: positions printed as 6 (n in SEQ ID NO: 1) are modified bases, identity not stated in the supplied text; at 600 and 800 nM aptamer, saturated at 600 nM; CD31-negative HepG2 and MSCs only about 2% bound
# CD31 (PECAM-1) [2] = target: CD31 (PECAM-1) (UniProt P16284); assay: cell_activity; conditions: positions printed as 6 (n in SEQ ID NO: 1) are modified bases, identity not stated in the supplied text; aptamer-coated microfluidic device on ECM, shear stress 20 dynes/cm2; antibody coating 51%; more than 80% attached at 10 dynes/cm2
sequence,measurement,setting,value
TCAGCCGCCAGCCAGTTCGTAGAGGAGGTACGTAATGTCTGGGTATACCCCGATAATTGACCAGAGCACCACAGAG [anti-CD31 aptamer],binding signal (% of HUVECs bound),CD31 (PECAM-1) [1],99
same,activity (% HUVECs attached),CD31 (PECAM-1) [2],61.5

# Source: patent US20230285635
